Laboratory results: IntAct's records for PubMed 25910212

B1: Emerin (Homo sapiens), P50402 (parent)
chain: MDNYADLSDTELTTLLRRYNIPHGPVVGSTRRLYEKKIFEYETQRRRLSPPSSSAASSYSFSDLNSTRGDADMYDLPKKEDALLYQSKGYNDDYYEESYFTTRTYGEPESAGPSRAVRQSVTSFPDADAFHHQVHDDDLLSSSEEECKDRERPMYGRDSAYQSITHYRPVSASRSSLDLSYYPTSSSTSFMSSSSSSSSWLTRRAIRPENRAPGAGLGQDRQVPLWGQLLLFLVFVIVLFFIYHFMQAEEGNPF
partner: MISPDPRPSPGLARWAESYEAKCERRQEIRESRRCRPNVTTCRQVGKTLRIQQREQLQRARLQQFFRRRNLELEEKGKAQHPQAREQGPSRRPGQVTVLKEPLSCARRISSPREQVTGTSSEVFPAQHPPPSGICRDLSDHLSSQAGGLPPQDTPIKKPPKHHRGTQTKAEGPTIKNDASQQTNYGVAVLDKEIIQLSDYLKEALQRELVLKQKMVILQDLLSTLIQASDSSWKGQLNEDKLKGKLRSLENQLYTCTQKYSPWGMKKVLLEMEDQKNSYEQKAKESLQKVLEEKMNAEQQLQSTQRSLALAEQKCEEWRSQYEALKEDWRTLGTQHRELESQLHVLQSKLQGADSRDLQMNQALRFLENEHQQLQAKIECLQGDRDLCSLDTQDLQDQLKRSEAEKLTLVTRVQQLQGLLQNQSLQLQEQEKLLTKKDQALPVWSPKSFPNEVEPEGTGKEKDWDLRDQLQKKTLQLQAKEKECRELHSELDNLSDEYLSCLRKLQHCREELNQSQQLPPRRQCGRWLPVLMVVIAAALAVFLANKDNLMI
B2: Keratin, type II cytoskeletal 6A (Homo sapiens), P02538 (parent)
chain: MASTSTTIRSHSSSRRGFSANSARLPGVSRSGFSSVSVSRSRGSGGLGGACGGAGFGSRSLYGLGGSKRISIGGGSCAISGGYGSRAGGSYGFGGAGSGFGFGGGAGIGFGLGGGAGLAGGFGGPGFPVCPPGGIQEVTVNQSLLTPLNLQIDPTIQRVRAEEREQIKTLNNKFASFIDKVRFLEQQNKVLETKWTLLQEQGTKTVRQNLEPLFEQYINNLRRQLDSIVGERGRLDSELRGMQDLVEDFKNKYEDEINKRTAAENEFVTLKKDVDAAYMNKVELQAKADTLTDEINFLRALYDAELSQMQTHISDTSVVLSMDNNRNLDLDSIIAEVKAQYEEIAQRSRAEAESWYQTKYEELQVTAGRHGDDLRNTKQEIAEINRMIQRLRSEIDHVKKQCANLQAAIADAEQRGEMALKDAKNKLEGLEDALQKAKQDLARLLKEYQELMNVKLALDVEIATYRKLLEGEECRLNGEGVGQVNISVVQSTVSSGYGGASGVGSGLGLGGGSSYSYGSGLGVGGGFSSSSGRAIGGGLSSVGGGSSTIKYTTTSSSSRKSYKH
partner: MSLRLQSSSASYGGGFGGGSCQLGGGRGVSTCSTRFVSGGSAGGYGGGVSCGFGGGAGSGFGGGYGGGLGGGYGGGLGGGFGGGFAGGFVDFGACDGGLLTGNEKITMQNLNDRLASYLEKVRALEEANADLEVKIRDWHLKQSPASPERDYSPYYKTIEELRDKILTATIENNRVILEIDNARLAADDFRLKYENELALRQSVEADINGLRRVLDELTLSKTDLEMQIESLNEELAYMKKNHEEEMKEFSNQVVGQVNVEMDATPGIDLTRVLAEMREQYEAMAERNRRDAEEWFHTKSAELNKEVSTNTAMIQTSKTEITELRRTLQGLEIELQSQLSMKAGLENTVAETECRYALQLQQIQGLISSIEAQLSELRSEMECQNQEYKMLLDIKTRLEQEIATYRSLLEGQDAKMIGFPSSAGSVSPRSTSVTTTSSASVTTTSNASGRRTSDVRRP

Variants of: B1
Settings: with TRAF3IP3, Q9Y228

Effect of a mutation on the interaction, with no effect:
MDNYADLSDTELTTLLRRYNIPHGPVVGSTRRLYEKKIFEYETQRRRLSPPSSSAASSYSFSDLNSTRGDAVMYDLPKKEDALLYQSKGYNDDYYEESYFTTRTYGEPESAGPSRAVRQSVTSFPDADAFHHQVHDDDLLSSSEEECKDRERPMYGRDSAYQSITHYRPVSASRSSLDLSYYPTSSSTSFMSSSSSSSSWLTRRAIRPENRAPGAGLGQDRQVPLWGQLLLFLVFVIVLFFIYHFMQAEEGNPF [D72V]
MDNYADLSDTELTTLLRRYNIPHGPVVGSTRRLYEKKIFEYETQRRRLSPPSSFAASSYSFSDLNSTRGDADMYDLPKKEDALLYQSKGYNDDYYEESYFTTRTYGEPESAGPSRAVRQSVTSFPDADAFHHQVHDDDLLSSSEEECKDRERPMYGRDSAYQSITHYRPVSASRSSLDLSYYPTSSSTSFMSSSSSSSSWLTRRAIRPENRAPGAGLGQDRQVPLWGQLLLFLVFVIVLFFIYHFMQAEEGNPF [S54F]
MDNYADLSDTELTTLLRRYNIPHGPVVGSTRRLYEKKIFEYETQRRRLSPPSSSAASSYSFSDLNSTRGDADMYDLPKKEDALLYQSKGYNDDYYEESYFTTRTYGEPESAGPSRAVRQSVTSFPDADAFHHQVHDDDLLSSSEEECKDRERPMYGRDSAYQSITHYRPVSASRSSLDLSYYTTSSSTSFMSSSSSSSSWLTRRAIRPENRAPGAGLGQDRQVPLWGQLLLFLVFVIVLFFIYHFMQAEEGNPF [P183T]
MDNYADLSDTELTTLLRRYNIPHGPVVGSTRRLYEKKIFEYETQRRRLSPPSSSAASSYSFSDLNSTRGDADMYDLPKKEDALLYQSKGYNDDYYEESYFTTRTYGEPESAGPSRAVRQSVTSFPDADAFHHQVHDDDLLSSSEEECKDRERPMYGRDSAYQSITHYRPVSASRSSLDLSYYHTSSSTSFMSSSSSSSSWLTRRAIRPENRAPGAGLGQDRQVPLWGQLLLFLVFVIVLFFIYHFMQAEEGNPF [P183H]

Variants of: B2
Settings: with KRT13, P13646

Effect of a mutation on the interaction, with no effect:
MASTSTTIRSHSSSRRGFSASSARLPGVSRSGFSSVSVSRSRGSGGLGGACGGAGFGSRSLYGLGGSKRISIGGGSCAISGGYGSRAGGSYGFGGAGSGFGFGGGAGIGFGLGGGAGLAGGFGGPGFPVCPPGGIQEVTVNQSLLTPLNLQIDPTIQRVRAEEREQIKTLNNKFASFIDKVRFLEQQNKVLETKWTLLQEQGTKTVRQNLEPLFEQYINNLRRQLDSIVGERGRLDSELRGMQDLVEDFKNKYEDEINKRTAAENEFVTLKKDVDAAYMNKVELQAKADTLTDEINFLRALYDAELSQMQTHISDTSVVLSMDNNRNLDLDSIIAEVKAQYEEIAQRSRAEAESWYQTKYEELQVTAGRHGDDLRNTKQEIAEINRMIQRLRSEIDHVKKQCANLQAAIADAEQRGEMALKDAKNKLEGLEDALQKAKQDLARLLKEYQELMNVKLALDVEIATYRKLLEGEECRLNGEGVGQVNISVVQSTVSSGYGGASGVGSGLGLGGGSSYSYGSGLGVGGGFSSSSGRAIGGGLSSVGGGSSTIKYTTTSSSSRKSYKH [N21S]
MASTSTTIRSHSSSRRGFSANSARLPGVSRSGFSSVSVSRSRGSGGLGGACGGAGFGSRSLYGLGGSKRISIGGGSCAISGGYGSRAGGSYGFGGAGSGFGFGGGAGIGFGLGGGAGLAGGFGGPGFPVCPPGGIQEVTVNQSLLTPLNLQIDPTIQRVRAEEREQIKTLNNKFASFIDKVRFLEQQNKVLETKWTLLQEQGTKTVRQNLEPLFEQYINNLRRQLDSIVGERGRLDSELRGMQDLVEDFKNKYEDEINKRTAAENEFVTLKKDVDAAYMNKVELQAKADTLTDEINFLRALYDAELSQMQTHISDTSVVLSMDNNRNLDLDSIIAEVKAQYEEIAQRSRAEAESWYQTKYEELQVTAGRHGDDLRNTKQEIAEINRMIQRLRSEIDHVKKQCANLQAAIADAEQRGEMALKDAKNKLEGLEDALQKAKQDLARLLKEYQELMNVKLALDVEIPTYRKLLEGEECRLNGEGVGQVNISVVQSTVSSGYGGASGVGSGLGLGGGSSYSYGSGLGVGGGFSSSSGRAIGGGLSSVGGGSSTIKYTTTSSSSRKSYKH [A463P]
